In US20240123029A1:

Molecular target: Recombinant human mannose binding lectin (MBL) (human) (UniProt P11226)
Sequence (P11226 21-248 limits assumed): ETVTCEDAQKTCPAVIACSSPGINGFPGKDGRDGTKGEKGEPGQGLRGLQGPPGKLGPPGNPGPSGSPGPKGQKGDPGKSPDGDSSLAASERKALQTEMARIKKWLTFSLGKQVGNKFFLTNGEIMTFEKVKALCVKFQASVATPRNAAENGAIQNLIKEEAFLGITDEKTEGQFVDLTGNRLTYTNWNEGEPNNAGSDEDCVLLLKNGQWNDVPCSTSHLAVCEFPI

**Q.** With “Biotinylated SARS-CoV-2 S protein, His Tag, active trimer (from UniProt P0DTC2 16-1213) (other; other documents disagree on this pair)” as the substance, how does the EC50 (read off the curve) read?
**A.** Its EC50 (read off the curve) is 3 nM.
